Molecular target: ErbB3 (human) (UniProt P21860)
Test: cell-based or functional assay

- inhibition of HRG-induced cell growth (CTG assay), OVCAR8-GFP cells: 49%
- inhibition of HRG-induced cell growth (CTG assay), OVCAR-8-JMaCYT1 cells (ErbB4 overexpressing): < 20%
- inhibition of HRG-induced cell growth (CTG assay), OVCAR-8-JMaCYT2 cells (ErbB4 overexpressing): < 20%
- inhibition of HRG-induced cell growth (CTG assay), OVCAR-8 high ErbB4 expression clone #5: 8%
- inhibition of HRG-induced cell growth (CTG assay), OVCAR-8 low ErbB4 expression clone #4: 45%
- inhibition of HRG-induced cell growth (CTG assay), OVCAR-8 medium ErbB4 expression clone #9: 25%
- inhibition of HRG-induced cell proliferation (CTG assay), OVCAR-8 GFP-expressing control cells, 1.25 uM seribantumab: 40.8%
- inhibition of HRG-induced cell proliferation (CTG assay), OVCAR-8 parental cells, 1.25 uM seribantumab: 53.7%
- inhibition of HRG-stimulated cell proliferation (CTG assay), A549 cells, 1.25 uM seribantumab, 10 nM HRG: 70%
- inhibition of HRG-stimulated cell proliferation (CTG assay), OVCAR-8 cells, 1.25 uM seribantumab, 10 nM HRG: 41%
B1: Seribantumab (antibody, INN chains, looked up, V domains shown)
VH: EVQLLESGGGLVQPGGSLRLSCAASGFTFSHYVMAWVRQAPGKGLEWVSSISSSGGWTLYADSVKGRFTISRDNSKNTLYLQMNSLRAEDTAVYYCTRGLKMATIFDYWGQGTLVTVSS
VL: QSALTQPASVSGSPGQSITISCTGTSSDVGSYNVVSWYQQHPGKAPKLIIYEVSQRPSGVSNRFSGSKSGNTASLTISGLQTEDEADYYCCSYAGSSIFVIFGGGTKVTVLG
